According to the supplement of paper PMC10724198:
± gives the standard deviation of the averaged measurements.

What follows are sequences tested on Saccharomyces cerevisiae (assay: protein stability index of tFT-peptide fusion (C-terminal peptide) (PSI (0-1 scale)); higher = more stable (slower turnover)). Conditions: genetic background: wild type; temperature: 30 C.
Procedure: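 Multiplexed protein stability (MPS) profiling in S. cerevisiae. Random 12-aa peptides (tFT-X12 library) are fused to the C-terminus of a sfGFP-mCherry tandem fluorescent timer, after mCherry and a GGGS linker. Cells are FACS-sorted into 8 mCherry/sfGFP bins and deep-sequenced. The protein stability index (PSI) is the read-weighted bin average, scaled from 0 (unstable) to 1 (stable). Only peptides with >10 reads are reported; cells were grown at 30 °C in SC-His with glucose.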
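Also: PSI is a weighted mean of sequencing reads over stability bins, variants kept only with over 10 reads, mCherry proximal and sfGFP distal, peptide attached via GGGS linker.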

| Sequence | protein stability index |
| --- | --- |
| QVSLLVKKSKLR | 0.679 ± 0.049 |
| VGILTSVQKHSG | 0.723 ± 0.16 |
| LVFCSLLSLFFS | 0.557 ± 0.012 |
| VEESNQILERQS | 0.671 ± 0.0093 |
| FLLCISGFSSFL | 0.592 ± 0.0077 |
| VSSFGHTFCGWI | 0.618 ± 0.018 |
| FICGFRYHTVYR | 0.652 ± 0.043 |
| VCVSLNVGGVRF | 0.658 ± 0.024 |
| KRKRKKKSEKEE | 0.652 ± 0.025 |
| HSHAGIGPVVTR | 0.672 ± 0.0077 |
| FFLRLCTPPYFH | 0.651 ± 0.0097 |
| GIGVGGIHGGIL | 0.7547 ± 0.0044 |
| EREKKNKKGGCQ | 0.69 ± 0.018 |
| CPRRGSHLARLL | 0.621 ± 0.038 |
| YHLISSVRLPSS | 0.731 ± 0.033 |
| DSVQALDGRAGI | 0.683 ± 0.046 |
| SPPSFFRATRSN | 0.644 ± 0.096 |
| KIDKNHGILPNY | 0.679 ± 0.035 |
| FFTVRLRGGRDC | 0.649 ± 0.024 |
| PDLGRQPGGSET | 0.647 ± 0.052 |
| EDSRATNERGRT | 0.704 ± 0.049 |
| LPLPHALGSWSY | 0.7278 ± 0.0061 |
| KSNRCVQSKRQQ | 0.686 ± 0.037 |
| EGPLVRGSGVDV | 0.637 ± 0.043 |
| PSRLSKTLLMGW | 0.676 ± 0.07 |

| Sequence | protein stability index |
| --- | --- |
| IACSLSSFSPVW | 0.687 ± 0.031 |
| TPTFALIHPTET | 0.745 ± 0.031 |
| TLSHPAHLKPMR | 0.669 ± 0.051 |
| SHPAPGSPTSPS | 0.67064 ± 0.00027 |
| PCRPPSILAPHP | 0.739 ± 0.0097 |
| SLRSIAPLGSRC | 0.832 ± 0.19 |
| RSGPRMNVNRTL | 0.646 ± 0.11 |
| EARPQAMPGRHP | 0.689 ± 0.024 |
| AFLDISIPSSSL | 0.6857 ± 0.0063 |
| CACYILHGRSNP | 0.684 ± 0.081 |
| PLPFPFPLCSQS | 0.64 ± 0.1 |
| LPVCAFGWPVKS | 0.6566 ± 0.0037 |
| APPAPPTYLAPF | 0.729 ± 0.069 |
| DSASFAFCCFCD | 0.639 ± 0.023 |
| FFLGGGVGLVLV | 0.528 ± 0.053 |
| FFPPFLFSLFRT | 0.5621 ± 0.0007 |
| QLSSARTILRRP | 0.597 ± 0.0085 |
| PPTAPTYRQSQP | 0.6754 ± 0.001 |
| KYKVGLWHRVAK | 0.68 ± 0.16 |
| KKKGDAKNKKKQ | 0.714 ± 0.067 |
| VGFVAWFRNVCR | 0.653 ± 0.044 |
| KLKKKKISNVEN | 0.612 ± 0.0081 |
| RNKINKKKLKKG | 0.7403 ± 0.0062 |
| GPFGCLRSLIRG | 0.642 ± 0.097 |
| FGRGLCPHRLWI | 0.74 ± 0.039 |

| Sequence | protein stability index |
| --- | --- |
| SPWFPLPSFPLA | 0.73 ± 0.029 |
| SARDVPPPPLTP | 0.733 ± 0.018 |
| PVLVLPHARSPF | 0.695 ± 0.021 |
| DETCVGSWNSCG | 0.712 ± 0.044 |
| TRTFRPPPALPH | 0.691 ± 0.068 |
| PYRWQTRPDAVD | 0.666 ± 0.014 |
| QFVLLFRSSGLR | 0.7104 ± 0.0017 |
| VFGRSFFRLFRG | 0.6444 ± 0.0031 |
| TGKRADGGAEGG | 0.686 ± 0.0086 |
| SPHSRAPPRFPP | 0.726 ± 0.14 |
| VHHFCSPPLPPP | 0.732 ± 0.0095 |
| YLLLPPPPPPSL | 0.722 ± 0.0098 |
| VSPLFQDFSIIN | 0.717 ± 0.06 |
| RLSARRSVGGSA | 0.7097 ± 0.0051 |
| RPRLSGGLGGVG | 0.644 ± 0.051 |
| NSKTKNCYKTGS | 0.705 ± 0.061 |
| PLPARFPPSPPS | 0.743 ± 0.074 |
| ERKEERGREGKR | 0.628 ± 0.031 |
| PPYPPTPHQTSH | 0.641 ± 0.034 |
| ISNPAVHNPAGG | 0.641 ± 0.017 |
| WGIQGIKFFVGA | 0.7111 ± 0.0032 |
| CGWMVSAGRLGG | 0.655 ± 0.022 |
| ALKVMYMHTGKG | 0.62 ± 0.041 |
| PPFLSAFPPHLP | 0.724 ± 0.015 |
| SGDGGVGHWVGG | 0.676 ± 0.025 |

| Sequence | protein stability index |
| --- | --- |
| LTSRPIPFLLRG | 0.666 ± 0.014 |
| WCAYRPGSTGHR | 0.731 ± 0.058 |
| SHTIVPNPLKLV | 0.576 ± 0.019 |
| LGPLILDGATDC | 0.688 ± 0.11 |
| LQWAAGLRTTSP | 0.692 ± 0.071 |
| LSPSMSRLWGSK | 0.7365 ± 0.0033 |
| IKSKKKKKRNKR | 0.638 ± 0.032 |
| GGVRGWAAFSAE | 0.682 ± 0.028 |
| MKRMIKREIKIK | 0.679 ± 0.089 |
| LLSLVSDFLFGL | 0.698 ± 0.042 |
| GYLNSCADKNKV | 0.664 ± 0.028 |
| APWSQLRSPPAL | 0.769 ± 0.037 |
| SSLPSFPTKCPF | 0.71 ± 0.051 |
| SGYKVYNSVHIL | 0.602 ± 0.026 |
| LTSWAKRMGLGD | 0.731 ± 0.1 |
| LPLSFPTLPPPP | 0.66 ± 0.055 |
| PAPPRYPLSSSS | 0.633 ± 0.011 |
| SVMWEARTEDGS | 0.756 ± 0.043 |
| VNKRRCIGERDG | 0.6949 ± 0.0029 |
| LDSGSVYMSRDI | 0.652 ± 0.015 |
| VIFGCVLSQLDT | 0.705 ± 0.023 |
| HSCPVCVGWNYS | 0.654 ± 0.047 |
| SFKSCMCLFCGV | 0.659 ± 0.034 |
